Consider eight molecules from patent publication US20230279128A1 (SYNTHEKINE, published 2023).

The target in experiment [1] is T1, extracellular domain of hIFNgR2 (human, UniProt P38484 28-247).
T1 construct: also called hIFNgR2 ECD; hIFNgR2-ECD
T1 sequence: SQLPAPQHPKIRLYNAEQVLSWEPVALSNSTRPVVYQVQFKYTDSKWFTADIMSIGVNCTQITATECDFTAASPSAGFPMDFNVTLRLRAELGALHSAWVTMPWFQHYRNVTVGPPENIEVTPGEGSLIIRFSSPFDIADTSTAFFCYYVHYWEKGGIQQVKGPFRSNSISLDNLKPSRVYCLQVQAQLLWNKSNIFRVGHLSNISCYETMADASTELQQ
The experiment is described as follows: phage biopanning and periplasmic extract ELISA (PE-ELISA). The protocol:
Upon completion of the biopanning of Example 3, three 96-well plates of individual phage clones were isolated in order to perform periplasmic extract ELISA (PE-ELISA) on IFNgR2 coated plates to identify positive VHH binders that selectively bound IFNgR2. A 96-well plate was coated with IFNgR2 and PBS under the same conditions. Next, wells were blocked at 37° C. for 1 h. Then, 100 μl of extracted antibodies was added to each well and incubated for 1 h. Subsequently, 100 μl of anti-tag polyclonal antibody conjugated to HRP was added to each well and incubated at 37° C. for 1 h. Plates were developed with TMB substrate. The reaction was stopped by the addition of H2SO4. Absorbance at 450 nm was read on a microtiter plate reader. Antibodies with absorbance of the antigen-coated well at least threefold greater than PBS-coated control were considered to provide specific binding to IFNgR2. Positive clones were sequenced, and sequences analyzed to identify unique clonotypes

Experiment [2] has as its target T2, extracellular domain of mIFNgR2 (mouse).
T2 construct: also called mIFNgR2 ECD; mouse IFNgR2 extracellular domain
T2 chain: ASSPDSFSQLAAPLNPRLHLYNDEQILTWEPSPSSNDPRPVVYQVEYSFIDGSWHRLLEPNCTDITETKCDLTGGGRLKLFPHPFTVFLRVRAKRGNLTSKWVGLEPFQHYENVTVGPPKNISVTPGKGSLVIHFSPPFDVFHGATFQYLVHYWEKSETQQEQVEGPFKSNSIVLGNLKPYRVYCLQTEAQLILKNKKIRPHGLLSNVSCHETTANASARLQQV
The experiment is described as follows: flow cytometry, cross-reactivity. Background: In flow cytometry, cells or beads pass a laser one at a time.

Experiment [3] concerns the target T1, extracellular domain of hIFNgR2. The experiment is described as follows: flow cytometry.

B1: DR958 (VHH)
VHH: QVQLVESGGGLVQAGDSLTLSCTASGRTFSGYNMGWFRQAPGKERDFVAAINWIGGATYYADSVKGRFTISRDNAKNTVYLQMNSLKPEDTAVYYCHRYSEKFYSGKDYYTRDYDYWGQGTQVTVSS
As for B1, the binding result in experiment [1] and in experiment [2] was “binds” throughout.

B2: DR957 (VHH)
VHH: QVQLVESGGGLVQAGGSLRLSCAPSGRTFSSYAMAWFRQPPGKEREFVAAITVSGASTYYADSVKGRFTISRDNAKNSMYLQMNSLKPEDTAVYYCAAGGPGTIFPDYDYWGQGTQVTVSS
As to B2, the binding result in experiment [1] and in experiment [2] was “binds” each time.

B3: DR934 (VHH)
VHH: QVQLVESGGGLVQAGGSLRLSCAASGRSFANYAMGWFRQAPGKERETVAAISRGGGSTWYADSVKGRFTISKDNAKNTVYLQMNSLKPEDTAIYYCAARSYSGSYTYSFGEYDYWGQGTQVTVSS
Take B3: the binding result in experiment [3] and in experiment [2] was “binds” each time.

B4: DR933 (VHH)
VHH: QVQLVESGGGLVQPGDSLRLSCVASGGTISSLAMGWFRQAPGKEREFVAAISWSGRSTYYVDSVKGRFTISTDNAKNTVYLQMNSLKPEDTAVYYCVAGEDGHSEYDYWGQGTQVTVSS
For the molecule B4, the binding result in experiment [3] and in experiment [2] was “binds” throughout.

B5: DR932 (VHH)
VHH: QVQLVESGGGLVQAGGFLRLSCAASGRTFSYTTIGWFRQAPGKEREFVAVISAGGGSRDYADALKGRFTISRDNAKKMVYLQMNNLKPEDTAVYYCAVRRNTDTYTTTGDYDYWGQGTQVTVSS
Regarding B5, the binding result in experiment [3] and in experiment [2] was “binds” each time.

B6: DR935 (VHH)
VHH: QVQLVESGGGLVQAGGSLRLSCAASGRAFSTYALGWFRQAPGKEREFIAAISRGGGSTDYADSVKGRFTISRDNAKSTVYLQMNSLKPEDTAVYYCAARSYSSSYYYSQYEYDYWGQGTQVTVSS
As for B6, the binding result in experiment [3] and in experiment [2] was “binds” throughout.

B7: DR930 (VHH)
VHH: EVQLVESGGGLVQAGGSLRLSCTVSGRTFSSYAVAWFRQAPGNVRELAAALSRGGGSAYYTDSVKGRFTISRDNAKNTVYLQMNSLKPEDTAVYYCAARNYDGTYYQENQYNYWGQGTQVTVSS
In the case of B7, the binding result in experiment [3] and in experiment [2] was “binds” in each case.

B8: DR931 (VHH)
VHH: QVQLVESGGGLVQAGGSLLLSCAASGRTFSTYAMGWFRQAPGKERMFVAAISVNGGSTYYADSVTGRFTISRDNAKNTMYLQMNNLKPGDTAVYYCAARRPYPGSDFLTWASYDYRGQGTLVTVSS
With B8, the binding result in experiment [3] and in experiment [2] was “binds” throughout.
